Results on two proteins are retold here after PMC9800250.

Substrate in series [1]: CC(C)=CCC/C(C)=C/COP(=O)(O)OP(=O)(O)O
The series can be described thus: HPLC of S-adenosylhomocysteine formation, steady state. Type of series: biochemical, Streptomyces coelicolor. Particulars: 100 μM SAM, 10 mM MgCl2, pH 7.0, 30°C, 20 min, 2 μM enzyme.

Substrate in series [2]: CC(C)=CCOP(=O)(O)OP(=O)(O)O
The description is as above. Type of series: biochemical, Streptomyces coelicolor. The settings on record: 100 μM SAM, 10 mM MgCl2, pH 7.0, 30°C, 20 min, 5 μM enzyme.

B1: ScGPPC2MT (GPP C2-methyltransferase) (Streptomyces coelicolor A3(2)) (protein)
chain: MTTETTTATATAKIPAPATPYQEDIARYWNNEARPVNLRLGDVDGLYHHHYGIGPVDRAALGDPEHSEYEKKVIAELHRLESAQAEFLMDHLGQAGPDDTLVDAGCGRGGSMVMAHRRFGSRVEGVTLSAAQADFGNRRARELRIDDHVRSRVCNMLDTPFDKGAVTASWNNESTMYVDLHDLFSEHSRFLKVGGRYVTITGCWNPRYGQPSKWVSQINAHFECNIHSRREYLRAMADNRLVPHTIVDLTPDTLPYWELRATSSLVTGIEKAFIESYRDGSFQYVLIAADRV
In general, Km refers to the substrate concentration at which the rate is half of its maximum. Consider B1, for which, in series [1], the Km stood at 0.88 ± 0.09 µM and the kcat result is “(4.90 ± 0.16) × 10^−4 s^−1”.

B2: ScGPPC2MT (GPP C2-methyltransferase) (Streptomyces coelicolor A3(2); F222Y/G202M) (protein)
chain: MTTETTTATATAKIPAPATPYQEDIARYWNNEARPVNLRLGDVDGLYHHHYGIGPVDRAALGDPEHSEYEKKVIAELHRLESAQAEFLMDHLGQAGPDDTLVDAGCGRGGSMVMAHRRFGSRVEGVTLSAAQADFGNRRARELRIDDHVRSRVCNMLDTPFDKGAVTASWNNESTMYVDLHDLFSEHSRFLKVGGRYVTITMCWNPRYGQPSKWVSQINAHYECNIHSRREYLRAMADNRLVPHTIVDLTPDTLPYWELRATSSLVTGIEKAFIESYRDGSFQYVLIAADRV
Take B2: in series [2], the Km amounted to 5.33 ± 0.81 µM and the kcat entry was “(9.59 ± 0.25) × 10^−5 s^−1”.
